Test results taken from PMC7984218.
Residue numbers refer to the chain shown, from its start.

T1: Dna2405N (UniProt P38859)
T1 sequence: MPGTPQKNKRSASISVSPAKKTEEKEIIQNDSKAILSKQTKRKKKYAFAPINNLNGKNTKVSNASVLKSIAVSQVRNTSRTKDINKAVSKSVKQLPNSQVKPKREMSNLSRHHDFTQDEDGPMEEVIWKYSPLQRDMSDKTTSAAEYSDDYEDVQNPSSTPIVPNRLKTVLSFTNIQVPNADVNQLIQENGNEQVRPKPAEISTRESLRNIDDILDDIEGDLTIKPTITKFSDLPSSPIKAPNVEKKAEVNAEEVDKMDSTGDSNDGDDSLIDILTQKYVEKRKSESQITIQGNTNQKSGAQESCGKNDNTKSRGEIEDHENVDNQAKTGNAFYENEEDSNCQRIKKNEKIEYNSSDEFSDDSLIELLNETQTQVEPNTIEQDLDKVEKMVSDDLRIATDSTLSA

T2: GST-Dna2405N-5A-His6 (UniProt P38859 1-405, K41A;R42A;K43A;K44A;K45A)
T2 sequence: T1 sequence with K41A, R42A, K43A, K44A, K45A

B1: Hairpin (standard 5' hairpin flap; oligos 1, 2, 5) (structured_DNA)
DNA 1: GAAAACATTATTAATGGCGTCGAGCTAGGCACAAGGCGAACTGCTAACGG
DNA 2: CCGTTAGCAGTTCGCCTTGTGCCTA
DNA 3: GCGCATGTGCGTTCCGTCCGGTTCAAGCCGCAGCGGCTTGAACCGGACGCTCGACGCCATTAATAATGTTTTC

Legend:
Dna2405N = target: T1, Dna2405N; test: competition
GST-Dna2405N-5A-His6 = target: T2, GST-Dna2405N-5A-His6; test: EMSA

Molecule	binding signal (% inhibition of Hairpin binding) (Dna2405N)	binding result (GST-Dna2405N-5A-His6)
M13mp18 viral DNA (sscDNA)	> 80	–
B1	–	no binding
